Results from publication PMC5940873, “NADH/NADPH bi-cofactor-utilizing and thermoactive ketol-acid reductoisomerase from Sulfolobus acidocaldarius” (Scientific Reports, 2018).

What was measured:
[1] = target: the molecule itself; assay: SEC; gel filtration on HiLoad 16/600 Superdex 200 pg, in the presence of 2 mM Mg2+
[2] = target: the molecule itself; assay: crystal structure; X-ray, 1.75 Å, space group P212121, one dimer in the asymmetric unit; SeMet crystals from 0.2 M Li2SO4 and 20% PEG 3350, 25 °C

Row | Protein | stoichiometry N [1] | binding result [2]
1 | Ketol-acid reductoisomerase from Sulfolobus acidocaldarius (Sac-KARI), His-tagged recombinant (enzyme, pET-21a cloned through NdeI/XhoI with the His-tag coding region kept would give a C-terminal His6 tag (surmised); No tag cleavage is described; also called ilvc1559; source: E. coli BL21 (DE3), purified (heating at 65 °C for 30 min, Ni-NTA, gel filtration)) MAKIYTDKDVSLDVIKEKRVAVLGYGSQGRAWALNLRDSGIKVSVGLEREGNSWKQAENDGFKPLRTEEAVRNSDIIIFLLPDMIQRTVYLERVKPYLKEGMDLVFAHGFNIHYRLIEPPSNVDVYMIAPKAPGPIVREYFAKGGGVPALVATYQDHSGKALQKALAVAKAIGATRAGVIETTFKEETETDLFGEQVDLVGGVMQLMRYAFQTLVEAGYQPEVAYFETINEMKLIVDLVYEKGFSGMLTAVSDTAKYGGMTVGKMVIDESVKERMKKALDNIRSGKFAEKWVEEYGKGANTIKEGMKEVDNSTEEKVGRSLRDIILRGKPKS | 2 | –
2 | SeMet-substituted Sac-KARI (ketol-acid reductoisomerase from Sulfolobus acidocaldarius) (enzyme, selenomethionine in place of methionine (SeMet-substituted), Ketol-acid reductoisomerase (class I KARI) of Sulfolobus acidocaldarius, gene ilvc1559, same pET21a-ilvc construct as m1, expressed with selenomethionine; also called SeMet-containing Sac-KARI; source: Overnight Express Autoinduction System 2 (Novagen) with L-methionine and SeMet; purified as the native protein (heating, Ni-NTA, gel filtration)) MAKIYTDKDVSLDVIKEKRVAVLGYGSQGRAWALNLRDSGIKVSVGLEREGNSWKQAENDGFKPLRTEEAVRNSDIIIFLLPDMIQRTVYLERVKPYLKEGMDLVFAHGFNIHYRLIEPPSNVDVYMIAPKAPGPIVREYFAKGGGVPALVATYQDHSGKALQKALAVAKAIGATRAGVIETTFKEETETDLFGEQVDLVGGVMQLMRYAFQTLVEAGYQPEVAYFETINEMKLIVDLVYEKGFSGMLTAVSDTAKYGGMTVGKMVIDESVKERMKKALDNIRSGKFAEKWVEEYGKGANTIKEGMKEVDNSTEEKVGRSLRDIILRGKPKS | – | binds
